# B1: ELMO1-del10-V5 (amino acid residues 1-613 of ELMO1) (other)
# chain: MPPPSDIVKVAIEWPGAYPKLMEIDQKKPLSAIIKEVCDGWSLANHEYFALQHADSSNFYITEKNRNEIKNGTILRLTTSPAQNAQQLHERIQSSSMDAKLEALKDLASLSRDVTFAQEFINLDGISLLTQMVESGTERYQKLQKIMKPCFGDMLSFTLTAFVELMDHGIVSWDTFSVAFIKKIASFVNKSAIDISILQRSLAILESMVLNSHDLYQKVAQEITIGQLIPHLQGTDQEIQTYTIAVINALFLKAPDERRQEMANILAQKQLRYIILTHVIRAQRAINNEMAHQLYVLQVLTFNLLEDRMMTKMDPQDQAQRDIIFELRRIAFDAESEPNNSSGSMEKRKSMYTRDYKKLGFINHVNPAMDFTQTPPGMLALDNMLYFAKHHQDAYIRIVLENSSREDKHECPFGRSSIELTKMLCEILKVGELPSETCNDFHPMFFTHDRSFEEFFCICIQLLNKTWKEMRATSEDFNKVMQVVKEQVMRALTTKPSSLDQFKSKLQNLSYTEILKIRQSERMNQEDFQSRPILELKEKIQPEILELIKQQRLNRLVEGTCFRKLNARRRQDKFWYCRLSPNHKVLHYGDLEESPQGEVPHDSLQDKLPVADI
# notes: Expressed in 293T cells; also called PcDNA ELMO1-del10-V5; PcDNA ELMO1-del10; not shown: V5 (and His) tag from the PcDNA V5His vector
# B2: ELMO1-del1-V5 (amino acid residues 147-727 of ELMO1) (other)
# chain: MKPCFGDMLSFTLTAFVELMDHGIVSWDTFSVAFIKKIASFVNKSAIDISILQRSLAILESMVLNSHDLYQKVAQEITIGQLIPHLQGTDQEIQTYTIAVINALFLKAPDERRQEMANILAQKQLRYIILTHVIRAQRAINNEMAHQLYVLQVLTFNLLEDRMMTKMDPQDQAQRDIIFELRRIAFDAESEPNNSSGSMEKRKSMYTRDYKKLGFINHVNPAMDFTQTPPGMLALDNMLYFAKHHQDAYIRIVLENSSREDKHECPFGRSSIELTKMLCEILKVGELPSETCNDFHPMFFTHDRSFEEFFCICIQLLNKTWKEMRATSEDFNKVMQVVKEQVMRALTTKPSSLDQFKSKLQNLSYTEILKIRQSERMNQEDFQSRPILELKEKIQPEILELIKQQRLNRLVEGTCFRKLNARRRQDKFWYCRLSPNHKVLHYGDLEESPQGEVPHDSLQDKLPVADIKAVVTGKDCPHMKEKGALKQNKEVLELAFSILYDSNCQLNFIAPDKHEYCIWTDGLNALLGKDMMSDLTRNDLDTLLSMEIKLRLLDLENIQIPDAPPPIPKEPSNYDFVYDCN
# notes: Expressed in 293T cells; also called ELMO1-dell; PcDNA ELMO1-del1-V5; not shown: V5 (and His) tag from the PcDNA V5His vector
# B3: full length ELMO1 with V5 tag (PcDNA ELMO1-V5) (other)
# chain: MPPPSDIVKVAIEWPGAYPKLMEIDQKKPLSAIIKEVCDGWSLANHEYFALQHADSSNFYITEKNRNEIKNGTILRLTTSPAQNAQQLHERIQSSSMDAKLEALKDLASLSRDVTFAQEFINLDGISLLTQMVESGTERYQKLQKIMKPCFGDMLSFTLTAFVELMDHGIVSWDTFSVAFIKKIASFVNKSAIDISILQRSLAILESMVLNSHDLYQKVAQEITIGQLIPHLQGTDQEIQTYTIAVINALFLKAPDERRQEMANILAQKQLRYIILTHVIRAQRAINNEMAHQLYVLQVLTFNLLEDRMMTKMDPQDQAQRDIIFELRRIAFDAESEPNNSSGSMEKRKSMYTRDYKKLGFINHVNPAMDFTQTPPGMLALDNMLYFAKHHQDAYIRIVLENSSREDKHECPFGRSSIELTKMLCEILKVGELPSETCNDFHPMFFTHDRSFEEFFCICIQLLNKTWKEMRATSEDFNKVMQVVKEQVMRALTTKPSSLDQFKSKLQNLSYTEILKIRQSERMNQEDFQSRPILELKEKIQPEILELIKQQRLNRLVEGTCFRKLNARRRQDKFWYCRLSPNHKVLHYGDLEESPQGEVPHDSLQDKLPVADIKAVVTGKDCPHMKEKGALKQNKEVLELAFSILYDSNCQLNFIAPDKHEYCIWTDGLNALLGKDMMSDLTRNDLDTLLSMEIKLRLLDLENIQIPDAPPPIPKEPSNYDFVYDCN
# notes: Expressed in 293T cells; also called mouse ELMO1; not shown: V5 (and His) tag from the PcDNA V5-His vector
# B4: ELMO1-del8-V5 (amino acid residues 345-727 of ELMO1) (other)
# chain: MEKRKSMYTRDYKKLGFINHVNPAMDFTQTPPGMLALDNMLYFAKHHQDAYIRIVLENSSREDKHECPFGRSSIELTKMLCEILKVGELPSETCNDFHPMFFTHDRSFEEFFCICIQLLNKTWKEMRATSEDFNKVMQVVKEQVMRALTTKPSSLDQFKSKLQNLSYTEILKIRQSERMNQEDFQSRPILELKEKIQPEILELIKQQRLNRLVEGTCFRKLNARRRQDKFWYCRLSPNHKVLHYGDLEESPQGEVPHDSLQDKLPVADIKAVVTGKDCPHMKEKGALKQNKEVLELAFSILYDSNCQLNFIAPDKHEYCIWTDGLNALLGKDMMSDLTRNDLDTLLSMEIKLRLLDLENIQIPDAPPPIPKEPSNYDFVYDCN
# notes: Expressed in 293T cells; also called PcDNA ELMO1-del8-V5; not shown: V5 (and His) tag from the PcDNA V5His vector
# Experiments:
# Assay in all cases: co-immunoprecipitation from 293T cells: anti-HA IP, anti-V5 Western blot
# [1] = biological target: T1, full length DOCK2 with HA tag at the C terminus (PcDNA DOCK2-HA) (mouse, UniProt Q8C3J5 1-1828)
# T1 construct: Expressed in 293T cells from PcDNA/His max vector and tested in cell lysate by co-immunoprecipitation; also called Hch; mouse DOCK2
# [2] = biological target: T2, Tiam1 with HA tag at its C terminus (PCI Tiam1-HA) (mouse, UniProt Q60610 1-1591, limits assumed)
# T2 construct: Expressed in 293T cells from the PCI vector; also called mouse Tiam1
# DOCK2 SH3 mutant G32E-HA = biological target: T3, DOCK2 SH3 mutant G32E-HA (mouse, UniProt Q8C3J5 1-1828)
# T3 construct: Glycine at position 32 of DOCK2 is substituted to glutamic acid; HA tag at the C terminus; Expressed in 293T cells; also called PcDNA G32E-HA
# DOCK2 SH3 mutant F63E-HA = biological target: T4, DOCK2 SH3 mutant F63E-HA (mouse, UniProt Q8C3J5 1-1828)
# T4 construct: Phenylalanine at position 63 of DOCK2 is substituted to glutamic acid; HA tag at the C terminus; Expressed in 293T cells; also called PcDNA F63E-HA
# [3] = biological target: T5, DOCK2ΔN-HA (amino acid residue 505-1828 of DOCK2, HA tag at the C terminus) (mouse, UniProt Q8C3J5 505-1828)
# T5 construct: Expressed in 293T cells; also called PcDNA DOCK2ΔN-HA
# DOCK2 SH3 mutant P60E-HA = biological target: T6, DOCK2 SH3 mutant P60E-HA (mouse, UniProt Q8C3J5 1-1828)
# T6 construct: Proline at position 60 of DOCK2 is substituted to glutamic acid; HA tag at the C terminus; Expressed in 293T cells; also called PcDNA P60E-HA
# T6 sequence (Q8C3J5 other isoform, or with tags, fused parts or gaps P60E P60E limits assumed): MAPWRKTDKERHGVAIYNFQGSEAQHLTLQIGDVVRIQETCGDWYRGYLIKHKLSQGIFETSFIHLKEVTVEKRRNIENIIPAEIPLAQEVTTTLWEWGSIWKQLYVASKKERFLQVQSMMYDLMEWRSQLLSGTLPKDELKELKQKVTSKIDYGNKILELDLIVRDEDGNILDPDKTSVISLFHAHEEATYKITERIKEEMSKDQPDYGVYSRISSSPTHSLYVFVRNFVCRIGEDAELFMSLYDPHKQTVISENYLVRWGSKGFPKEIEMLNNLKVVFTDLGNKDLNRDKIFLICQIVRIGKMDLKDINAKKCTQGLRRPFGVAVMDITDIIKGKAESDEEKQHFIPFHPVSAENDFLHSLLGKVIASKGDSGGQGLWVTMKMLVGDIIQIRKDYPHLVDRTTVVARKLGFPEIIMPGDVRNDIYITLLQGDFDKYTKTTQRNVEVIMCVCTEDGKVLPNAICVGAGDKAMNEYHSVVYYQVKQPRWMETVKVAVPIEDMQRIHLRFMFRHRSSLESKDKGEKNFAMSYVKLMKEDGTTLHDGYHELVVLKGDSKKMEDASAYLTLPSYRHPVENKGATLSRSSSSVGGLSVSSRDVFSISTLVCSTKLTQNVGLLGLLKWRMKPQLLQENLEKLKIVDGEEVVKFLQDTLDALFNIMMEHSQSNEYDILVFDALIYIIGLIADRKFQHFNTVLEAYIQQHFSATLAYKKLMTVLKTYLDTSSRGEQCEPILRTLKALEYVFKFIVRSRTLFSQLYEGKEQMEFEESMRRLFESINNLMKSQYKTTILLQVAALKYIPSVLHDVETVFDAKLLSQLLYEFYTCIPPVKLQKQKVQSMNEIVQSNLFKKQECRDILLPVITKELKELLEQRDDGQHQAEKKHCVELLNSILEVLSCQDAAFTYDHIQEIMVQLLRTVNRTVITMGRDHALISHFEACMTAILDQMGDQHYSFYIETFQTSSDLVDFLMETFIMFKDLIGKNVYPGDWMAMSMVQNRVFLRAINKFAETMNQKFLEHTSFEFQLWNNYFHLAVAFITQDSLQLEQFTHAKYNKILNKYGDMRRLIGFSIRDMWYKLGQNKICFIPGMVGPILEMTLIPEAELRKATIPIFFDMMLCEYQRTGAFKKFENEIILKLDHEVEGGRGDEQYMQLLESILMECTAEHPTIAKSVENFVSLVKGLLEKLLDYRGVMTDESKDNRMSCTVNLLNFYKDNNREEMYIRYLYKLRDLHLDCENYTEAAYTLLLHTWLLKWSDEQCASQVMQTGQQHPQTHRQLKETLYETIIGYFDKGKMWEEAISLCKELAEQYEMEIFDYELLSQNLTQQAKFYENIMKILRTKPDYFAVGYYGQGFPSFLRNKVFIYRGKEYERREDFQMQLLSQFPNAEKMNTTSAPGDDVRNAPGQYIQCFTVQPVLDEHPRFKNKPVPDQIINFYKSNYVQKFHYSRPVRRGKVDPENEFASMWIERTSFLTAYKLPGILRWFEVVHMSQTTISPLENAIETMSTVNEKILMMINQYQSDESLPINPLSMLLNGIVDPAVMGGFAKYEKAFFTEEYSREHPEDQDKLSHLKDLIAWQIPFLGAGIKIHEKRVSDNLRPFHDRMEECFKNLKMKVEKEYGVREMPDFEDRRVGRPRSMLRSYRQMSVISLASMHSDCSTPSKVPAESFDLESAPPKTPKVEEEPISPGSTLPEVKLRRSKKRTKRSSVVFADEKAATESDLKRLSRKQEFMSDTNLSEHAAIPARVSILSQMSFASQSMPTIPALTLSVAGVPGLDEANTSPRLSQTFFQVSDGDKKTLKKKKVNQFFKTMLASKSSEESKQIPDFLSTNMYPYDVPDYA
# T2 sequence (Q60610 other isoform, or with tags, fused parts or gaps limits assumed): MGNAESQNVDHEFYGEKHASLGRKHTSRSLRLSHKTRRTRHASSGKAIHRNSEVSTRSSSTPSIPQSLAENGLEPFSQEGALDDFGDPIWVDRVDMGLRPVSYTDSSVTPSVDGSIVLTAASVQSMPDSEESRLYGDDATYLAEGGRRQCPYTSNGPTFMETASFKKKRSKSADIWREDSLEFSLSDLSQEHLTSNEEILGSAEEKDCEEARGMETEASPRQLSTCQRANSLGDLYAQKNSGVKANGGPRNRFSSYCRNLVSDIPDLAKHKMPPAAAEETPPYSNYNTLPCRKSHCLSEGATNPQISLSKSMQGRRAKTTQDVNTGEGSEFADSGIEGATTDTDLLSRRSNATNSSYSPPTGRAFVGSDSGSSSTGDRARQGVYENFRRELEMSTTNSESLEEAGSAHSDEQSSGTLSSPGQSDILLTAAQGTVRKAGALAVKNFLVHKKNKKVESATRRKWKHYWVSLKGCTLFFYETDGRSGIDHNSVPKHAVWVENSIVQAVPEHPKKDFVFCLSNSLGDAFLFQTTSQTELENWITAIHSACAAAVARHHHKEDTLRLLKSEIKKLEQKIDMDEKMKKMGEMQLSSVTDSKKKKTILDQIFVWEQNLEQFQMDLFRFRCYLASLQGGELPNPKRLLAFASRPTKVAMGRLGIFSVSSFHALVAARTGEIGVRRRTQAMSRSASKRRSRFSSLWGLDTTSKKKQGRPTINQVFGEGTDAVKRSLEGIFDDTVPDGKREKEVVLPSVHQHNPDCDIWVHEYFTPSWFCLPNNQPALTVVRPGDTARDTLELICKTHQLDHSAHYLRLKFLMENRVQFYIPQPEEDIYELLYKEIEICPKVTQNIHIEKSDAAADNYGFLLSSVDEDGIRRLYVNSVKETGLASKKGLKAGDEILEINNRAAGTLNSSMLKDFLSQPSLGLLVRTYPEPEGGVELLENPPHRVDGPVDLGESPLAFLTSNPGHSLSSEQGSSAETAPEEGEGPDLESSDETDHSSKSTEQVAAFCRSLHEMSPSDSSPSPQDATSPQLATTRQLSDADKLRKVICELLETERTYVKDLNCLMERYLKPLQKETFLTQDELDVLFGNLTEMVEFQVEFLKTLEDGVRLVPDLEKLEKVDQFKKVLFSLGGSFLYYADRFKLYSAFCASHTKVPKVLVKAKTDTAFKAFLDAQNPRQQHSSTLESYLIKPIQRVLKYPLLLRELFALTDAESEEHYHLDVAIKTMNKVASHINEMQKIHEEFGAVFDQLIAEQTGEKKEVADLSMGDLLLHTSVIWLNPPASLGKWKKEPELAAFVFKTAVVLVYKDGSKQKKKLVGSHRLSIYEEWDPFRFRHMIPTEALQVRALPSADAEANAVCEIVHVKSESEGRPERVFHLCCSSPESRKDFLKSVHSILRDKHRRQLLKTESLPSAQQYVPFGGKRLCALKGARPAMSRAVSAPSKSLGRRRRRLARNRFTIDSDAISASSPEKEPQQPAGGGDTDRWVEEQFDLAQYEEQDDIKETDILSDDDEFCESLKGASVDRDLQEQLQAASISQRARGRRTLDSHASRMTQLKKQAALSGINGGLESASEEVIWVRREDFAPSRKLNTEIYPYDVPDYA
# T1 sequence (Q8C3J5 other isoform, or with tags, fused parts or gaps limits assumed): as the sequence (Q8C3J5 other isoform, or with tags, fused parts or gaps P60E P60E limits assumed) above, with E60P counted along it
# T4 sequence (Q8C3J5 other isoform, or with tags, fused parts or gaps F63E F63E limits assumed): as the sequence (Q8C3J5 other isoform, or with tags, fused parts or gaps P60E P60E limits assumed) above, with E60P, F63E counted along it
# T5 sequence (Q8C3J5 other isoform, or with tags, fused parts or gaps mutant): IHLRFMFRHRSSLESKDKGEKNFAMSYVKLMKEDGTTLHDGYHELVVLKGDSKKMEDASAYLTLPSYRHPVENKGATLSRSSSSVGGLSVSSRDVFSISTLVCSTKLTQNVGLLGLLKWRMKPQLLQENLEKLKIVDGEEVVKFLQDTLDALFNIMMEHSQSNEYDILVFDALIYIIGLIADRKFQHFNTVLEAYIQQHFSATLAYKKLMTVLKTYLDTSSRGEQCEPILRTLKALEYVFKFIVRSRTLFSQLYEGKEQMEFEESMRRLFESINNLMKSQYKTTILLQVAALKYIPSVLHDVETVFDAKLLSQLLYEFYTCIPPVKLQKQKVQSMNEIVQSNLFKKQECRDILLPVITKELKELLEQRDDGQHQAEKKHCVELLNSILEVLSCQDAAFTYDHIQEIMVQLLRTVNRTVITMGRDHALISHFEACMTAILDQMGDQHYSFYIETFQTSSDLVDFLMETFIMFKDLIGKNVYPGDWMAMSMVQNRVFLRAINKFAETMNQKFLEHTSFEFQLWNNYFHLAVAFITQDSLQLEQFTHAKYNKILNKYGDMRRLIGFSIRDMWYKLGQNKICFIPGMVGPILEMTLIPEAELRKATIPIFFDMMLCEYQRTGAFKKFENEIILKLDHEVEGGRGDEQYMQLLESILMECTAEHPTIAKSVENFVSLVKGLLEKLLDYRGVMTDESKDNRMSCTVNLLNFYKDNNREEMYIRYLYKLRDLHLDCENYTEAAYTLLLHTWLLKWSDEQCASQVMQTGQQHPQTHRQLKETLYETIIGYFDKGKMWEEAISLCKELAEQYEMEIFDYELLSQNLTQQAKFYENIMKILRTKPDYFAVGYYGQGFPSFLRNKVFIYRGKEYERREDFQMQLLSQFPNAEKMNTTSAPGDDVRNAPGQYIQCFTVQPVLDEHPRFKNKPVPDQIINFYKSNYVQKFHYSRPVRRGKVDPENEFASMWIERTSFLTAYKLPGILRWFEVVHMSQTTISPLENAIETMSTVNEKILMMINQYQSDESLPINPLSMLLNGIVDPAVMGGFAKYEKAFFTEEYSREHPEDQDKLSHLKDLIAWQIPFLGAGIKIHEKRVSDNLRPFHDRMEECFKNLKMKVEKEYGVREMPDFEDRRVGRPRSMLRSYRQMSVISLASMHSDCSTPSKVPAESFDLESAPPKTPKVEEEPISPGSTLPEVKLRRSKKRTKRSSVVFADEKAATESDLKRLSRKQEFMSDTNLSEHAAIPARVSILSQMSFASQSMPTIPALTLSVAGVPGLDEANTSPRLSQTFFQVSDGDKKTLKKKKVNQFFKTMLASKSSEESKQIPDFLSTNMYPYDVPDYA
# T3 sequence (Q8C3J5 other isoform, or with tags, fused parts or gaps G32E G32E limits assumed): as the sequence (Q8C3J5 other isoform, or with tags, fused parts or gaps P60E P60E limits assumed) above, with G32E, E60P counted along it
binder,measurement,setting,value
B1,binding result,[1],no binding
B2,binding result,[2],no binding
B3,binding result,DOCK2 SH3 mutant G32E-HA,no binding
same,binding result,DOCK2 SH3 mutant F63E-HA,no binding
same,binding result,[3],no binding
same,binding result,DOCK2 SH3 mutant P60E-HA,no binding
B4,binding result,[2],no binding
